From PMC12216678

Target: mouse FXII^HC5 (mouse)
Test: native MS; buffer-exchanged into 1 M ammonium acetate pH 7.0, electrospray, Bruker maXis qTOF, native-favouring source conditions

mouse FXII^HC5 (domain or fragment)
stoichiometry N: 2
